Measurements: the supplement of paper PMC10567573

B1: NECAB1 (parent)
chain: NLDTEELCEYFSQHLGEYENVLAA

Variants of: B1
Test: protein stability index of a GFP-peptide fusion (GPS, HEK-293T) (PSI 1-6); higher = more stable
Settings: c terminus: a fixed tail appended
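Also: lentivirally expressed fusions sorted by FACS into six bins by GFP to DsRed ratio, PSI derived from sequencing read proportions per bin multiplied by bin number.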

Compared with NLDTEELCEYFSQHLGEYSNVLAA, NLDTEELCEYFSQHLGEYLNVLAA is lower in protein stability index: 2.11 for the first, 1.82 for the second.

Compared with NLDTEELCEYFSQHLGEYRNVLAA, NLDTEELCEYFSQHLGEYCNVLAA is lower in protein stability index: 1.84 for the first, 1.83 for the second.

Going from NLDTEELCEYFSQHLGEYMNVLAA to NLDTEELCEYFSQHLGEYPNVLAA, the protein stability index rises from 2.18 to 2.91.

Going from NLDTEELCEYFSQHLGEYWNVLAA to NLDTEELCEYFSQHLGEYANVLAA, the protein stability index falls from 1.82 to 1.66.

Compared with NLDTEELCEYFSQFLGEYENVLAA, NLDTEELCEYFSQLLGEYENVLAA is higher in protein stability index: 2.02 for the first, 2.09 for the second.

Compared with NLDTEELCEYFSQELGEYENVLAA, NLDTEELCEYFSQILGEYENVLAA is lower in protein stability index: 4.47 for the first, 1.87 for the second.

Going from NLDTEELCEYFSQKLGEYENVLAA to NLDTEELCEYFSQCLGEYENVLAA, the protein stability index rises from 2.73 to 3.63.

First: NLDTEELCEYFSQSLGEYENVLAA
Second: NLDTEELCEYFSQYLGEYENVLAA
The protein stability index of the first is higher: 3.81 for the first, 2.19 for the second.

Compared with NLDTEELCEYFSQRLGEYENVLAA, NLDTEELCEYFSQTLGEYENVLAA is higher in protein stability index: 2.12 for the first, 4.11 for the second.

Compared with NLDTEELCEYFSQDLGEYENVLAA, VLDTEELCEYFSQHLGEYENVLAA is lower in protein stability index: 3.86 for the first, 3.12 for the second.

First: LLDTEELCEYFSQHLGEYENVLAA
Second: HLDTEELCEYFSQHLGEYENVLAA
The protein stability index of the first is lower: 2.53 for the first, 3.35 for the second.

Going from CLDTEELCEYFSQHLGEYENVLAA to ILDTEELCEYFSQHLGEYENVLAA, the protein stability index falls from 2.67 to 2.66.

First: ALDTEELCEYFSQHLGEYENVLAA
Second: GLDTEELCEYFSQHLGEYENVLAA
The protein stability index of the first is lower: 2.94 for the first, 3.68 for the second.

Going from PLDTEELCEYFSQHLGEYENVLAA to RLDTEELCEYFSQHLGEYENVLAA, the protein stability index falls from 3.68 to 3.54.

Compared with DLDTEELCEYFSQHLGEYENVLAA, NLDTEELCEYFSQHLGEYENVLYA is higher in protein stability index: 1.87 for the first, 2.2 for the second.

Going from NLDTEELCEYFSQHLGEYENVLCA to NLDTEELCEYFSQHLGEYENVLKA, the protein stability index falls from 2.46 to 2.17.

Compared with NLDTEELCEYFSQHLGEYENVLRA, NLDTEELCEYFSQHLGEYENVLDA is higher in protein stability index: 2.51 for the first, 4.52 for the second.

First: NLDTEELCEYFSQHCGEYENVLAA
Second: NLDTEELCEYFSQHSGEYENVLAA
The protein stability index of the first is lower: 2.92 for the first, 3.47 for the second.

Compared with NLDTEELCEYFSQHHGEYENVLAA, NLDTEELCEYFSQHVGEYENVLAA is lower in protein stability index: 3.91 for the first, 2.04 for the second.

Going from NLDTEELCEYFSQHNGEYENVLAA to NLDTEELCEYFSQHMGEYENVLAA, the protein stability index falls from 4.48 to 3.07.

Compared with NLDTEELCEYFSQHEGEYENVLAA, NLDTEELCEYFSQHQGEYENVLAA is lower in protein stability index: 4.45 for the first, 4 for the second.

Going from NLDTEELCEYFSQHWGEYENVLAA to NLDTEELCEYFSQHLGEYENVYAA, the protein stability index rises from 2.65 to 3.52.

First: NLDTEELCEYFSQHLGEYENVGAA
Second: NLDTEELCEYFSQHLGEYENVIAA
The protein stability index of the first is higher: 4.3 for the first, 2.53 for the second.

Compared with NLDTEELCEYFSQHLGEYENVHAA, NLDTEELCEYFSQHLGEYENVEAA is higher in protein stability index: 4.32 for the first, 4.42 for the second.

Compared with NLDTEELCEYFSQHLGEYENVMAA, NLDTEELCEYFSQHLGEYENVVAA is lower in protein stability index: 3.71 for the first, 3.26 for the second.

Going from NLDTEELCEYFSQHLGEYENNLAA to NLDTEELCEYFSQHLGEYENHLAA, the protein stability index falls from 4.05 to 3.14.

Compared with NLDTEELCEYFSQHLGEYENSLAA, NLDTEELCEYFSQHLGEYENDLAA is higher in protein stability index: 3.88 for the first, 4.86 for the second.

Going from NLDTEELCEYFSQHLGEYENLLAA to NLDTEELCEYFSQHLGEYENRLAA, the protein stability index rises from 2.76 to 2.97.

Compared with NLDTEELCEYFSQHLGEYENPLAA, NLDTEELCEYFSQHLGEYENGLAA is lower in protein stability index: 4.46 for the first, 4.32 for the second.

Compared with NLDTEELCEYFSQHLLEYENVLAA, NLDTEELCEYFSQHLHEYENVLAA is lower in protein stability index: 1.9 for the first, 1.48 for the second.

Compared with NLDTEELCEYFSQHLPEYENVLAA, NLDTEELCEYFSQHLNEYENVLAA is lower in protein stability index: 2.03 for the first, 1.95 for the second.

Compared with NLDTEELCEYFSQHLSEYENVLAA, NLDTEELCEYFSQHLEEYENVLAA is lower in protein stability index: 2.48 for the first, 2.04 for the second.

Compared with NLDTEELCEYFSQHLFEYENVLAA, NLDTEEACEYFSQHLGEYENVLAA is higher in protein stability index: 2.27 for the first, 4.43 for the second.

Compared with NLDTEEICEYFSQHLGEYENVLAA, NLDTEERCEYFSQHLGEYENVLAA is higher in protein stability index: 3.01 for the first, 4.49 for the second.

Compared with NLDTEEHCEYFSQHLGEYENVLAA, NLDTEECCEYFSQHLGEYENVLAA is lower in protein stability index: 4.63 for the first, 3.85 for the second.

Compared with NLDTEEYCEYFSQHLGEYENVLAA, NLDTEEKCEYFSQHLGEYENVLAA is higher in protein stability index: 3.94 for the first, 4.7 for the second.

First: NLDTEESCEYFSQHLGEYENVLAA
Second: NLDTEEPCEYFSQHLGEYENVLAA
The protein stability index of the first is higher: 4.53 for the first, 4.29 for the second.

First: NLDTEELCEYWSQHLGEYENVLAA
Second: NLDTEELCEYNSQHLGEYENVLAA
The protein stability index of the first is lower: 3.85 for the first, 5.01 for the second.

Going from NLDTEELCEYLSQHLGEYENVLAA to NLDTEELCEYISQHLGEYENVLAA, the protein stability index rises from 2 to 3.59.

Going from NLDTEELCEYTSQHLGEYENVLAA to NLDTEELCEYASQHLGEYENVLAA, the protein stability index falls from 4.82 to 4.18.

First: NLDTEELCEYKSQHLGEYENVLAA
Second: NLDTEELCEYCSQHLGEYENVLAA
The protein stability index of the first is higher: 5.08 for the first, 4.03 for the second.

Compared with NLDTEELCEYRSQHLGEYENVLAA, NLDLEELCEYFSQHLGEYENVLAA is lower in protein stability index: 5.19 for the first, 2.15 for the second.

Compared with NLDSEELCEYFSQHLGEYENVLAA, NLDGEELCEYFSQHLGEYENVLAA is higher in protein stability index: 3.32 for the first, 3.91 for the second.

Compared with NLDQEELCEYFSQHLGEYENVLAA, NLDVEELCEYFSQHLGEYENVLAA is lower in protein stability index: 3.59 for the first, 2.12 for the second.

First: NLDTEELCCYFSQHLGEYENVLAA
Second: NLDTEELCWYFSQHLGEYENVLAA
The protein stability index of the first is higher: 2.55 for the first, 1.77 for the second.

Compared with NLDTEELCKYFSQHLGEYENVLAA, NLDTEELCIYFSQHLGEYENVLAA is higher in protein stability index: 2.25 for the first, 2.47 for the second.

First: NLDTEELCVYFSQHLGEYENVLAA
Second: NLDTEELCFYFSQHLGEYENVLAA
The protein stability index of the first is higher: 1.93 for the first, 1.8 for the second.
